Patent publication US7067277 (H LUNDBECK A S, dated 2006)
Positions count from the first letter of the chain named.

T1: human GALR3 receptor (human, UniProt O60755 1-368)
T1 sequence (looked up): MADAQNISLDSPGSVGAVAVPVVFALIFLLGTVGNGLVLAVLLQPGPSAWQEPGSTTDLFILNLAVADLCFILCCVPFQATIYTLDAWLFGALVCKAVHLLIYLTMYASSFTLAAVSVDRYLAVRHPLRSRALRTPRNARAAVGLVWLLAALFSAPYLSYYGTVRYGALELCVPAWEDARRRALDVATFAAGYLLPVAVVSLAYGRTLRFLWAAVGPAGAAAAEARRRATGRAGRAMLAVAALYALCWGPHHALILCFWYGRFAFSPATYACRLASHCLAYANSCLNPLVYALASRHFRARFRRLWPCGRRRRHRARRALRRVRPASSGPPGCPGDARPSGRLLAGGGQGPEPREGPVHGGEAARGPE

T2: human 5HT1A receptor (human, UniProt P08908 1-422)
T2 sequence (looked up): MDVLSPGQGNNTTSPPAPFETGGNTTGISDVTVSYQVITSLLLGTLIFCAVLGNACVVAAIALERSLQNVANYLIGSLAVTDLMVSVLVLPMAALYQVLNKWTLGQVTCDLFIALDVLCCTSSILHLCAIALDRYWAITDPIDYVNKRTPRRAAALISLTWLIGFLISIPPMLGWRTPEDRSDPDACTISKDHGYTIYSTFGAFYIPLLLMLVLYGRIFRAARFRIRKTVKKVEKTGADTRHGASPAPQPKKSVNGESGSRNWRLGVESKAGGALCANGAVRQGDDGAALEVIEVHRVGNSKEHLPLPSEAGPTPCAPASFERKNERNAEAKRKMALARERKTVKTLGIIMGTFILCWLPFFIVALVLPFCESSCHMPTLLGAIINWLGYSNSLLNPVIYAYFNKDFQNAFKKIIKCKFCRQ

T3: rat GALR3 receptor (rat, UniProt O88626 1-370)
T3 sequence (looked up): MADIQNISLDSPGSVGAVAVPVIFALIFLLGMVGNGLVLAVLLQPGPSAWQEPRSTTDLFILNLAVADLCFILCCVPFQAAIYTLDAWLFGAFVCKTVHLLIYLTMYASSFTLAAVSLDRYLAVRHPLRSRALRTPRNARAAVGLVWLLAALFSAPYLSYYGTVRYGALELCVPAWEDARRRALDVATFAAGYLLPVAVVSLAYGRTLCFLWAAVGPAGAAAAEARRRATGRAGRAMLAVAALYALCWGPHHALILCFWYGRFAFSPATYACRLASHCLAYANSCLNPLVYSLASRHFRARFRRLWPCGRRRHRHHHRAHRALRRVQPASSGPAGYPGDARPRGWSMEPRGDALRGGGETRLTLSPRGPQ

T4: rat GALR1 receptor (rat, UniProt Q62805 1-346)
T4 sequence (looked up): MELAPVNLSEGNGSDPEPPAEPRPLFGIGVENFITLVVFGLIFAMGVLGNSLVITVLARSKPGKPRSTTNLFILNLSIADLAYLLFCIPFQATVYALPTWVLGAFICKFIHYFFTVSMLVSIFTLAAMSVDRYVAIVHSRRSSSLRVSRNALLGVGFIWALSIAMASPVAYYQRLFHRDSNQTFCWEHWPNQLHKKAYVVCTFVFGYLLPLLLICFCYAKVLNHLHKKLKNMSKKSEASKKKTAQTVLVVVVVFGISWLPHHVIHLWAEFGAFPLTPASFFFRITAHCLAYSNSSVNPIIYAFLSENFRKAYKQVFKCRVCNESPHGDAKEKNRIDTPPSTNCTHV

T5: human Y1 receptor (human, UniProt P25929 1-384)
T5 sequence (looked up): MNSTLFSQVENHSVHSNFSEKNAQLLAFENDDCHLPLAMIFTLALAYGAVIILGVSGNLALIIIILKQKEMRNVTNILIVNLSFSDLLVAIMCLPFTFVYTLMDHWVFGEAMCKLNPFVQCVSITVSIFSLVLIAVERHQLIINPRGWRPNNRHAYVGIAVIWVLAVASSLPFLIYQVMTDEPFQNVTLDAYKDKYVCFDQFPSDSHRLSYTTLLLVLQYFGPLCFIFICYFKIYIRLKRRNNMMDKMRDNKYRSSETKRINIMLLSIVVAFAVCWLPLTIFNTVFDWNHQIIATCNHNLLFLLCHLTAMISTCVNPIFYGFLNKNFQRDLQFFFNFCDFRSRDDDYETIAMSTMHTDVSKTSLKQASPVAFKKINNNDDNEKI

T6: human α1A adrenergic receptor (human, UniProt P35348 1-466)
T6 sequence (looked up): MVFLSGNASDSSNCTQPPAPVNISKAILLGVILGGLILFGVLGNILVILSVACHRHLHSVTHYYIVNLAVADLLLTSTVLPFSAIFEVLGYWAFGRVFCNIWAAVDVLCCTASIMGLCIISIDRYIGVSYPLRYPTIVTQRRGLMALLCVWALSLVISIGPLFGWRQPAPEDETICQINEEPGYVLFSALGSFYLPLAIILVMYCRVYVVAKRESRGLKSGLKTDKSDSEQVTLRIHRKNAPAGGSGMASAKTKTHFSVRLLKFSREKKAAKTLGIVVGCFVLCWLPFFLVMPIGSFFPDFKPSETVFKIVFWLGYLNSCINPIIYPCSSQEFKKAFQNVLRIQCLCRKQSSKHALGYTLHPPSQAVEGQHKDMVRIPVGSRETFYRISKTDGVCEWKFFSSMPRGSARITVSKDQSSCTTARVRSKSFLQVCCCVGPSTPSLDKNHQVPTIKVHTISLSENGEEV

B1: C. elegans Gαq/z5 (other)
chain: MACCLSEEAREQKRINQEIEKQLQRDKRNARRELKLLLLGTGESGKSTFIKQMRIIHGQGYSEEDKRAHIRLVYQNVFMAIQSMIRAMDTLDIKFGNESEELQEKAAVVREVDFESVTSFEEPYVSYIKELWEDSGIQECYDRRREYQLTDSAKYYLSDLRRLAVPDYLPTEQDILRVRVPTTGIIEYPFDLEQIIFRMVDVGGQRSERRKWIHCFENVTSIMFLVALSEYDQVLVECDNENRMEESKALFRTIITYPWFTNSSVILFLNKKDLLEEKILYSHLADYFPEYDGPPRDPIAAREFILKMFVDLNPDADKIIYSHFTCATDTENIRFVFAAVKDTILQHNLKYIGLC
B2: C. elegans Gαq/z9 (other)
chain: B1 chain with H347N
B3: Human Gαq/z5 (Ala→Ser substitution at position 171) (other)
chain: MTLESIMACCLSEEAKEARRINDEIERQLRRDKRDARRELKLLLLGTGESGKSTFIKQMRIIHGSGYSDEDKRGFTKLVYQNIFTAMQAMIRAMDTLKIPYKYEHNKAHAQLVREVDVEKVSAFENPYVDAIKSLWNDPGIQECYDRRREYQLSDSTKYYLNDLDRVADPSYLPTQQDVLRVRVPTTGIIEYPFDLQSVIFRMVDVGGQRSERRKWIHCFENVTSIMFLVALSEYDQVLVESDNENRMEESKALFRTIITYPWFQNSSVILFLNKKDLLEEKIMYSHLVDYFPEYDGPQRDAQAAREFILKMFVDLNPDSDKIIYSHFTCATDTENIRFVFAAVKDTILQLNLKYIGLC

What follows are binders tested against human 5HT1E receptor (human, UniProt P28566 1-365) (assay: cell-based or functional assay).
Sequence of human 5HT1E receptor (P28566 whole entry): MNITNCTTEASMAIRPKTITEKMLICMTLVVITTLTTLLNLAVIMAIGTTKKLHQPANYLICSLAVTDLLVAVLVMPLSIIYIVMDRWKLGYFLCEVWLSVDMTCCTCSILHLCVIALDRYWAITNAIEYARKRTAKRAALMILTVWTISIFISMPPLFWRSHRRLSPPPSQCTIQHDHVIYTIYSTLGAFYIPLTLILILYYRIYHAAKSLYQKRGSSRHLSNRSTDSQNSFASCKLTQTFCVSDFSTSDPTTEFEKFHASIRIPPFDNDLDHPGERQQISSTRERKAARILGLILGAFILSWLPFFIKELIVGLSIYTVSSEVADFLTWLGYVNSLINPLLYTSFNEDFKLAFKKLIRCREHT

| Binder | max Ca2+ signal, COS-7, FLIPR; agonist 5HT |
| --- | --- |
| B1 | 229 fluorescence units |
| B2 | 238 fluorescence units |
| B3 | 202 fluorescence units |

Each binder was assayed against mouse 5HT5B receptor (mouse, UniProt P31387 1-370) (assay: cell-based or functional assay).
Sequence of mouse 5HT5B receptor (P31387 whole entry): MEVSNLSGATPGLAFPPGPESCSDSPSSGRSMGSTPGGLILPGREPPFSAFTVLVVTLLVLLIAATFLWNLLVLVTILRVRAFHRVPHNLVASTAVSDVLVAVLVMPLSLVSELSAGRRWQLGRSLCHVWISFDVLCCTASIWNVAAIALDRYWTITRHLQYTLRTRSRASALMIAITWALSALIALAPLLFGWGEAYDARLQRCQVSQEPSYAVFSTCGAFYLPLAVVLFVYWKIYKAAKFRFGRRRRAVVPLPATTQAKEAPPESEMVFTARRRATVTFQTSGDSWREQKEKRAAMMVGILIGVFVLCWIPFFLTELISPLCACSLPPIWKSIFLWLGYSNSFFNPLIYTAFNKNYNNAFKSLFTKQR

| Binder | max Ca2+ signal, COS-7, FLIPR; agonist 5HT |
| --- | --- |
| B1 | 265 fluorescence units |
| B2 | 443 fluorescence units |
| B3 | 251 fluorescence units |

These binders were tested against human 5HT4 receptor (human, UniProt Q13639 1-388) (assay: cell-based or functional assay).
Sequence of human 5HT4 receptor (Q13639 whole entry): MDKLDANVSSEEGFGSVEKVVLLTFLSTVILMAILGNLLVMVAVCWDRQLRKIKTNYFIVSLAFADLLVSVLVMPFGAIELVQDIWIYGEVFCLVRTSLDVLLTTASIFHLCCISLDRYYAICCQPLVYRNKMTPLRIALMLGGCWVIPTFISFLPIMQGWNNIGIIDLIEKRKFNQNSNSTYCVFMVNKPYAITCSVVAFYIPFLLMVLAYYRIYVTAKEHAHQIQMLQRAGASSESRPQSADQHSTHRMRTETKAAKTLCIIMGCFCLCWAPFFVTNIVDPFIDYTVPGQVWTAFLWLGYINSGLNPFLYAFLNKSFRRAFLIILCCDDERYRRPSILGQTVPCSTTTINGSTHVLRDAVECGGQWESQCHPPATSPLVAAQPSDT

| Binder | max Ca2+ signal, COS-7, FLIPR; agonist 5HT |
| --- | --- |
| B1 | 1010 fluorescence units |
| B2 | 1700 fluorescence units |
| B3 | 2160 fluorescence units |

Each binder was assayed against T1, human GALR3 receptor (assay: cell-based or functional assay).

| Binder | max Ca2+ signal, COS-7, FLIPR; agonist GAL |
| --- | --- |
| B1 | 1520 fluorescence units |
| B2 | 2050 fluorescence units |
| B3 | 804 fluorescence units |

The binders below were run against human β2 adrenergic receptor (human, UniProt P07550 1-413) (assay: cell-based or functional assay).

| Binder | max Ca2+ signal, COS-7, FLIPR; agonist NE |
| --- | --- |
| B1 | 1840 fluorescence units |
| B2 | 1700 fluorescence units |
| B3 | 128 fluorescence units |

Each binder was assayed against T2, human 5HT1A receptor (assay: cell-based or functional assay).

| Binder | max Ca2+ signal, COS-7, FLIPR; agonist 5HT |
| --- | --- |
| B1 | 2000 fluorescence units |
| B2 | 3140 fluorescence units |
| B3 | 478 fluorescence units |

The binders below were run against T3, rat GALR3 receptor (assay: cell-based or functional assay).

| Binder | max Ca2+ signal, COS-7, FLIPR; agonist GAL |
| --- | --- |
| B1 | 2300 fluorescence units |
| B2 | 2970 fluorescence units |
| B3 | 2800 fluorescence units |

Each binder was assayed against human MCH receptor (human, UniProt Q99705 1-353) (assay: cell-based or functional assay).
Sequence of human MCH receptor (Q99705 whole entry): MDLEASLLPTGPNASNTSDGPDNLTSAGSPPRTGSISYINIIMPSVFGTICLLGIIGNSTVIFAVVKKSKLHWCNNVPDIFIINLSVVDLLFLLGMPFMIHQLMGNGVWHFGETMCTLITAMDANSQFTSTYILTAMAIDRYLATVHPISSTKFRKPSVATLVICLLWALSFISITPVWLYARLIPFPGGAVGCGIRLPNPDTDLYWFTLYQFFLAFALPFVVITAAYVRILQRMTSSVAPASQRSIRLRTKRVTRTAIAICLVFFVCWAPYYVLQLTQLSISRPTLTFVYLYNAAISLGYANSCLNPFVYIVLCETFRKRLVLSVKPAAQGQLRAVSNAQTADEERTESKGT

| Binder | max Ca2+ signal, COS-7, FLIPR; agonist MCH |
| --- | --- |
| B1 | 2700 fluorescence units |
| B2 | 3330 fluorescence units |
| B3 | 783 fluorescence units |

The binders below were run against T4, rat GALR1 receptor (assay: cell-based or functional assay).

| Binder | max Ca2+ signal, COS-7, FLIPR; agonist GAL |
| --- | --- |
| B1 | 3090 fluorescence units |
| B2 | 5950 fluorescence units |
| B3 | 82 fluorescence units |

These binders were tested against rat Y4 receptor (rat, UniProt Q63447 1-375) (assay: cell-based or functional assay).
Sequence of rat Y4 receptor (Q63447 whole entry): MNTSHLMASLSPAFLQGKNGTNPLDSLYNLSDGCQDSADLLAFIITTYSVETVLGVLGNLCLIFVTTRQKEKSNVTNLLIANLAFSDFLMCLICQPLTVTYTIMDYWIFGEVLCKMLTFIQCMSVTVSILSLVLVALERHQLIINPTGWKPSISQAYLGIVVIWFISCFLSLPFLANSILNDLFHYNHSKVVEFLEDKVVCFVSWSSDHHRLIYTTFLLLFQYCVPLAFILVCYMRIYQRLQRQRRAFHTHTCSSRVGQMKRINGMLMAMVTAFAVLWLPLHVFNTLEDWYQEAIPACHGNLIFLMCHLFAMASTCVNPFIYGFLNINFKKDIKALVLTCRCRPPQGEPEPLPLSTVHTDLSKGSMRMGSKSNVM

| Binder | max Ca2+ signal, COS-7, FLIPR; agonist PP |
| --- | --- |
| B1 | 3660 fluorescence units |
| B2 | 2580 fluorescence units |
| B3 | 4390 fluorescence units |

These binders were tested against human NPFF2 receptor (human, UniProt Q9Y5X5 1-522) (assay: cell-based or functional assay).
Sequence of human NPFF2 receptor (Q9Y5X5 whole entry): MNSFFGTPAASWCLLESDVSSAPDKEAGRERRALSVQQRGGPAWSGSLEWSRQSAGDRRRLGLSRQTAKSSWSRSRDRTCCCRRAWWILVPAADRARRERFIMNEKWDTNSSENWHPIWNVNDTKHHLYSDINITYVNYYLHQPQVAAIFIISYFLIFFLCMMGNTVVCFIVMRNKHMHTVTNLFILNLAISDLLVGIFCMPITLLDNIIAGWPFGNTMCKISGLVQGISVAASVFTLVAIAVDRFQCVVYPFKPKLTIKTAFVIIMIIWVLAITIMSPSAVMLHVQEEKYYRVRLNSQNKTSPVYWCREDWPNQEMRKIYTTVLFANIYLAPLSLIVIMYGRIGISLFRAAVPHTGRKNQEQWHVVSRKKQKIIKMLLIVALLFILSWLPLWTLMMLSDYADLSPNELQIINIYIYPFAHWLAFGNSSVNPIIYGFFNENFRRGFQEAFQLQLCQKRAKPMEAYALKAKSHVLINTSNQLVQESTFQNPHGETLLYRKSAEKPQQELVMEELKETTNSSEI

| Binder | max Ca2+ signal, COS-7, FLIPR; agonist NPFF |
| --- | --- |
| B1 | 7570 fluorescence units |
| B2 | 4580 fluorescence units |
| B3 | 20000 fluorescence units |

What follows are binders tested against T5, human Y1 receptor (assay: cell-based or functional assay).

| Binder | max Ca2+ signal, COS-7, FLIPR; agonist NPY |
| --- | --- |
| B1 | 7720 fluorescence units |
| B2 | 6730 fluorescence units |
| B3 | 1880 fluorescence units |

These binders were tested against T6, human α1A adrenergic receptor (assay: cell-based or functional assay).

| Binder | max Ca2+ signal, COS-7, FLIPR; agonist NE |
| --- | --- |
| B1 | 9820 fluorescence units |
| B2 | 6600 fluorescence units |
| B3 | 14200 fluorescence units |

These binders were tested against rat NTR1 receptor (rat, UniProt P20789 1-424) (assay: cell-based or functional assay).
Sequence of rat NTR1 receptor (P20789 whole entry): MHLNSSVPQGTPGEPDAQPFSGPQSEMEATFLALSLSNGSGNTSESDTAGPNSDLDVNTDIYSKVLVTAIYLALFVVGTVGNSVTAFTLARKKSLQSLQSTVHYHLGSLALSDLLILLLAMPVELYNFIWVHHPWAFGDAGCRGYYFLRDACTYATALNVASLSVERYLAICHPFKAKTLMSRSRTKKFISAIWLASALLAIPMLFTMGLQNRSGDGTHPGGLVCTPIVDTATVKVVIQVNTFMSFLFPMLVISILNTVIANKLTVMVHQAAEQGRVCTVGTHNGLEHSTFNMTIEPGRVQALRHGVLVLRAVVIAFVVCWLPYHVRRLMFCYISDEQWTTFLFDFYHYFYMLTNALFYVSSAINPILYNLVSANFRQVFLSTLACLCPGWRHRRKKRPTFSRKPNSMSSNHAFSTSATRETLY

| Binder | max Ca2+ signal, COS-7, FLIPR; agonist NT |
| --- | --- |
| B1 | 14500 fluorescence units |
| B2 | 6110 fluorescence units |
| B3 | 11200 fluorescence units |
